Data: patent US20020168363A1, “Integrin/adhesion antagonists” (Amgen Inc., priority 2000, published 2002)

Target: GPIIb/IIIa (UniProt P08514)
Test: inhibition of hu Fibrinogen-Ru binding

For Fibrinogen, the IC50 was 10.5 nM and the Ki was 5.26 nM.
